# In PMC12630686, “A degron-mimicking molecular glue drives CRBN homo-dimerization and degradation” (Nature Communications, 2025):
# B1: HaloTag-mouse CRBN (wild type) [mouse] / hCRBN-NanoLuc with a 191-248 aa deletion (Trunc) [human] (parent)
# chain 1: MAGEGDQQDAAHNMGNHLPLLPADSEDEDDEIEMEVEDQDSKEARKPNIINFDTSLPTSHTYLGADMEEFHGRTLHDDDSCQVIPVLPEVLMILIPGQTLPLQLSHPQEVSMVRNLIQKDRTFAVLAYSNVQEREAQFGTTAEIYAYREEQEFGIEVVKVKAIGRQRFKVLELRTQSDGIQQAKVQILPECVLPSTMSAVQLESLNKCQVFPSKPISWEDQYSCKWWQKYQKRKFHCANLTSWPRWLYSLYDAETLMDRIKKQLREWDENLKDDSLPENPIDFSYRVAACLPIDDVLRIQLLKIGSAIQRLRCELDIMNKCTSLCCKQCQETEITTKNEIFSLSLCGPMAAYVNPHGYVHETLTVYKASNLNLIGRPSTVHSWFPGYAWTIAQCKICASHIGWKFTATKKDMSPQKFWGLTRSALLPTIPETEDEISPDKVILCL
# chain 2: MAGEGDQQDAAHNMGNHLPLLPAESEEEDEMEVEDQDSKEAKKPNIINFDTSLPTSHTYLGADMEEFHGRTLHDDDSCQVIPVLPQVMMILIPGQTLPLQLFHPQEVSMVRNLIQKDRTFAVLAYSNVQEREAQFGTTAEIYAYREEQDFGIEIVKVKAIGRQRFKVLELRTQSDGIQQAKVQILPECVLDAETLMDRIKKQLREWDENLKDDSLPSNPIDFSYRVAACLPIDDVLRIQLLKIGSAIQRLRCELDIMNKCTSLCCKQCQETEITTKNEIFSLSLCGPMAAYVNPHGYVHETLTVYKACNLNLIGRPSTEHSWFPGYAWTVAQCKICASHIGWKFTATKKDMSPQKFWGLTRSALLPTIPDTEDEISPDKVILCL
# B2: HaloTag-CRBN (human, wild type) [human] / hCRBN-NanoLuc with a 191-248 aa deletion (Trunc) [human] (parent)
# chain 1: MAGEGDQQDAAHNMGNHLPLLPAESEEEDEMEVEDQDSKEAKKPNIINFDTSLPTSHTYLGADMEEFHGRTLHDDDSCQVIPVLPQVMMILIPGQTLPLQLFHPQEVSMVRNLIQKDRTFAVLAYSNVQEREAQFGTTAEIYAYREEQDFGIEIVKVKAIGRQRFKVLELRTQSDGIQQAKVQILPECVLPSTMSAVQLESLNKCQIFPSKPVSREDQCSYKWWQKYQKRKFHCANLTSWPRWLYSLYDAETLMDRIKKQLREWDENLKDDSLPSNPIDFSYRVAACLPIDDVLRIQLLKIGSAIQRLRCELDIMNKCTSLCCKQCQETEITTKNEIFSLSLCGPMAAYVNPHGYVHETLTVYKACNLNLIGRPSTEHSWFPGYAWTVAQCKICASHIGWKFTATKKDMSPQKFWGLTRSALLPTIPDTEDEISPDKVILCL
# chain 2: B1 chain 2
# Variants of: B1
# Assay: NanoBRET
# Settings: with hCRBN-NanoLuc with a 191-248 aa deletion (Trunc) [human]; MRT-31619 at log10 concentration = 4 (highest dose; concentration unit inferred); six biological replicates, mean ± SD; read off a plot
row,response,Variant
1,2.7 mBU,chain 1 MAGEGDQQDAAHNMGNHLPLLPADSEDEDDEIEMEVEDQDSKEARKPNIINFDTSLPTSHTYLGADMEEFHGRTLHDDDSCQVIPVLPEVLMILIPGQTLPLQLSHPQEVSMVRNLIQKDRTFAVLAYSNVQEREAQFGTTAEIYAYREEQEFGIEVVKVKAIGRQRFKVLELRTQSDGIQQAKVQILPECVLPSTMSAVQLESLNKCQVFPSKPISWEDQYSCKWWQKYQKRKFHCANLTSWPRWLYSLYDAETLMDRIKKQLREWDENLKDDSLPENPIDFSYRVAACLPIDDVLRIQLLKIGSAIQRLRCELDIMNKCTSLCCKQCQETEITTKNEIFSLSLCGPMAAYVNPHGYVHETLTVYKASNLNLIGRPSTEHSWFPGYAWTVAQCKICASHIGWKFTATKKDMSPQKFWGLTRSALLPTIPETEDEISPDKVILCL [chain 1 V380E I391V]
2,1.9 mBU,chain 1 MAGEGDQQDAAHNMGNHLPLLPADSEDEDDEIEMEVEDQDSKEARKPNIINFDTSLPTSHTYLGADMEEFHGRTLHDDDSCQVIPVLPEVLMILIPGQTLPLQLFHPQEVSMVRNLIQKDRTFAVLAYSNVQEREAQFGTTAEIYAYREEQEFGIEVVKVKAIGRQRFKVLELRTQSDGIQQAKVQILPECVLPSTMSAVQLESLNKCQVFPSKPISWEDQYSCKWWQKYQKRKFHCANLTSWPRWLYSLYDAETLMDRIKKQLREWDENLKDDSLPENPIDFSYRVAACLPIDDVLRIQLLKIGSAIQRLRCELDIMNKCTSLCCKQCQETEITTKNEIFSLSLCGPMAAYVNPHGYVHETLTVYKASNLNLIGRPSTVHSWFPGYAWTIAQCKICASHIGWKFTATKKDMSPQKFWGLTRSALLPTIPETEDEISPDKVILCL [chain 1 S105F]

# Variants of: B2
# Assay: NanoBRET
# Settings: with hCRBN-NanoLuc with a 191-248 aa deletion (Trunc) [human]; MRT-31619 at log10 concentration = 4 (highest dose; concentration unit inferred); three biological replicates, mean ± SEM; read off a plot
row,response,Variant
1,2.9 mBU,chain 1 MAGEGDQQDAAHNMGNHLPLLPAESEEEDEMEVEDQDSKEAKKPNIINFDTSLPTSHTYLGADMEEFHGRTLHDDDSCQVIPVLPQVMMILIPGQTLPLQLFHPQEVSMVRNLIQKDRTFAVLAYSNVQEREAQFGTTAEIYAYREEQDAGIEIVKVKAIGRQRFKVLELRTQSDGIQQAKVQILPECVLPSTMSAVQLESLNKCQIFPSKPVSREDQCSYKWWQKYQKRKFHCANLTSWPRWLYSLYDAETLMDRIKKQLREWDENLKDDSLPSNPIDFSYRVAACLPIDDVLRIQLLKIGSAIQRLRCELDIMNKCTSLCCKQCQETEITTKNEIFSLSLCGPMAAYVNPHGYVHETLTVYKACNLNLIGAPSTEHSWFPGYAWTVAQCKICASHIGWKFTATKKDMSPQKFWGLTRSALLPTIPDTEDEISPDKVILCL [chain 1 F150A R373A]
2,3.7 mBU,chain 1 MAGEGDQQDAAHNMGNHLPLLPAESEEEDEMEVEDQDSKEAKKPNIINFDTSLPTSHTYLGADMEEFHGRTLHDDDSCQVIPVLPQVMMILIPGQTLPLQLFHPQEVSMVRNLIQKDRTFAVLAYSNVQEREAQFGTTAEIYAYREEQDAGIEIVKVKAIGRQRFKVLELRTQSDGIQQAKVQILPECVLPSTMSAVQLESLNKCQIFPSKPVSREDQCSYKWWQKYQKRKFHCANLTSWPRWLYSLYDAETLMDRIKKQLREWDENLKDDSLPSNPIDFSYRVAACLPIDDVLRIQLLKIGSAIQRLRCELDIMNKCTSLCCKQCQETEITTKNEIFSLSLCGPMAAYVNPHGYVHETLTVYKACNLNLIGRPSTEHSWFPGYAWTVAQCKICASHIGWKFTATKKDMSPQKFWGLTRSALLPTIPDTEDEISPDKVILCL [chain 1 F150A]
3,3.3 mBU,chain 1 MAGEGDQQDAAHNMGNHLPLLPAESEEEDEMEVEDQDSKEAKKPNIINFDTSLPTSHTYLGADMEEFHGRTLHDDDSCQVIPVLPQVMMILIPGQTLPLQLFHPQEVSMVRNLIQKDRTFAVLAYSNVQEREAQFGTTAEIYAYREEQDFGIEIVKVKAIGRQRFKVLELRTQSDGIQQAKVQILPECVLPSTMSAVQLESLNKCQIFPSKPVSREDQCSYKWWQKYQKRKFHCANLTSWPRWLYSLYDAETLMDRIKKQLREWDENLKDDSLPSNPIDFSYRVAACLPIDDVLRIQLLKIGSAIQRLRCELDIMNKCTSLCCKQCQETEITTKNEIFSLSLCGPMAAYVNPHGYVHETLTVYKACNLNLIGRPSTAHSWFPGYAWTVAQCKICASHIGWKFTATKKDMSPQKFWGLTRSALLPTIPDTEDEISPDKVILCL [chain 1 E377A]
4,2.6 mBU,chain 1 MAGEGDQQDAAHNMGNHLPLLPAESEEEDEMEVEDQDSKEAKKPNIINFDTSLPTSHTYLGADMEEFHGRTLHDDDSCQVIPVLPQVMMILIPGQTLPLQLFHPQEVSMVRNLIQKDRTFAVLAYSNVQEREAQFGTTAEIYAYREEQDFGIEIVKVKAIGRQRFKVLELRTQSDGIQQAKVQILPECVLPSTMSAVQLESLNKCQIFPSKPVSREDQCSYKWWQKYQKRKFHCANLTSWPRWLYSLYDAETLMDRIKKQLREWDENLKDDSLPSNPIDFSYRVAACLPIDDVLRIQLLKIGSAIQRLRCELDIMNKCTSLCCKQCQETEITTKNEIFSLSLCGPMAAYVNPHGYVHETLTVYKACNLNLIGAPSTEHSWFPGYAWTVAQCKICASHIGWKFTATKKDMSPQKFWGLTRSALLPTIPDTEDEISPDKVILCL [chain 1 R373A]
